Reference: EP1615032A1 (Kido, Hiroshi, dated 2006)

Target: T1, purified mouse VDAC protein (mouse, UniProt Q3U6K8 2-283)
T1 construct: Used as a 100 ng/ml solution over dot-blotted ligands; also called voltage-dependent anion channel
Experiment: dot blot on nitrocellulose; bound VDAC detected with anti-VDAC antibody and ECL

B1: human microplasmin (enzyme, UniProt P00747 550-810, looked up)
chain: KLYDYCDVPQCAAPSFDCGKPQVEPKKCPGRVVGGCVAHPHSWPWQVSLRTRFGMHFCGGTLISPEWVLTAAHCLEKSPRPSSYKVILGAHQEVNLEPHVQEIEVSRLFLEPTRKDIALLKLSSPAVITDKVIPACLPSPNYVVADRTECFITGWGETQGTFGAGLLKEAQLPVIENKVCNRYEFLNGRVQSTELCAGHLAGGTDSCQGDSGGPLVCFEKDKYILQGVTSWGLGCARPNKPGVYVRVSRFVTWIEGVMRNN
notes: 50 ng dot blotted onto a nitrocellulose membrane; also called microplasmin having no Kringle domain
B1: no binding.
